According to the supplement of paper PMC9170038:

Columns and labels:
MS2 coat protein [1] = test: apparent KD of MS2 coat protein, switch OFF state (with FMN for OFF switches, without FMN for ON switches); designed switch direction (-1 OFF switch, 1 ON switch): 1; higher = weaker reporter binding; conditions: FMN input: 0 or 200 uM; Eterna round: R93 (includes R88 designs)
How it was run: (§1)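 On-chip transcription from Illumina sequencing clusters produced the designed RNA switches. These were titrated with SNAP-549-labelled MS2 coat protein (twofold steps, 0.7 or 1.5 nM to 3 µM) in 100 mM Tris-HCl pH 7.5, 80 mM KCl, 4 mM MgCl2, with or without constant ligand. The apparent KD given is the per-design median of normalised cluster binding-curve fits.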

MS2 coat protein [2] = test: apparent KD of MS2 coat protein, switch ON state; designed switch direction (-1 OFF switch, 1 ON switch): 1; higher = weaker reporter binding; conditions: FMN input: 0 or 200 uM; Eterna round: R93 (includes R88 designs)
How it was run: as §1

Row | Sequence | apparent KD of MS2 coat protein (MS2 coat protein [1]) | apparent KD of MS2 coat protein (MS2 coat protein [2])
1 | AAAUAACAUGAGGAUCACCCAUGUUGCAACGGUUGAGGAUAUGUGGGUGAAAAUAGCAUGGCAGAAGGCGAGUGUA [SameState1 Malc#27] | 31.9 nM | 58.1 nM
2 | AAAUGACAUGAGGAUCACCCAUGUCCACCAAACGGAGGAUAUUGGGCGGCAAAACGUUGUUAAGAAGGCCGAAAAA [SS1-1.1] | 28 nM | 60 nM
3 | AACAAACAUGAGGAUCACCCAUGUCAAACAUACCAAGGAUAUGGGAGACGAGACUCGUCACCAGAAGGUGGAAAUU [Maatce] | 123 nM | 106 nM
4 | AACAACAAUAUGAAGGAUAUCCACAACAAGACAUGAGGAUCACCCAUGUAAACAAAGAACAUACAGGAGAAGGUCAAGGGUGAAA [JR_SS002_Sub1203] | 39 nM | 56.2 nM
5 | AACAAUCUAUCUGAGGAUAUCAUGUCAAAGACAUGAGGAUCACCCAUGUGCAGGAAAACUGCAUAUGAGAAGGCAGAUAGAUUGA [SS2 :P - 599] | 130 nM | 217 nM
6 | AACAAUCUAUCUGAGGAUAUGUGUCAAAAGACAUGAGGAUCACCCAUGUAAAAACAUGAAAAGACACAGAAGGCAGAUAGAUUGA [SS2: 1153] | 44.2 nM | 21.4 nM
7 | AACAAUCUAUCUGAGGAUAUGUGUCGAAAGACAUGAGGAUCACCCAUGUGAAAACAUGAAAAGACACAGAAGGCAGAUAGAUUGA [SS2: 1154] | 41.5 nM | 40.2 nM
8 | AACAGACAUGAGGAUCACCCAUGUAGAAUUAUGGGAGGAUAUACAAAGACGAGAGUCAGAGUAGAAGGCCUAGGAC [salish99-ss1-163] | 71.2 nM | 20 nM
9 | AACAUACAUGAGGAUCACCCAUGUUCCGGCAGGGCAGGAUAUCCAUCGAAAGUGUUAUAAGGAGAAGGGCCAUAAA [JR_SS001_Sub013] | 93.3 nM | 31.7 nM
10 | AACAUACAUGAGGAUCACCCAUGUUUAUAAAAACAAGGAUAUAUAAGAACAAACAAACAAAUAGAAGGUGUAAAAA [Default title] | 17.2 nM | 23.4 nM
11 | AACCAACAUGAGGAUCACCCAUGUCAACCCAAGGCAGGAUAUGCGAGAAUAACAAUGGGAGCAGAAGGGCCGACCU [ss1-3] | 53.4 nM | 40 nM
12 | AACCGCGCUAUACAGGAUAUCACAAUAUCGACAUGAGGAUCACCCAUGUGACUGGCACCAGUCGGUGAGAAGGGUGAAGUGCGGC [Tilemage] | 238 nM | 149 nM
13 | AACUAACAUGAGGAUCACCCAUGUAUUCAAACAUGAGGAUAUAUAACACAUCAUCGACAGAUAGAAGGCAUAAAUA [JR_SS001_Sub1205] | 78.5 nM | 89.6 nM
14 | AACUAACAUGAGGAUCACCCAUGUUGCAGCGGUUGAGGAUAUGUGGGUGAAAAUAGCAUGGCAGAAGGCGAGUGUA [SameState1 Malc#25] | 52.2 nM | 68.8 nM
15 | AAGAAACAUGAGGAUCACCCAUGUAGAAAUAUGGGAGGAUAUACGAAGACGAAAGUCAAAGUAGAAGGCCUAAGAA [Mat - Same State 1 - Eli mod - D105] | 82 nM | 36.3 nM
16 | AAGAAACAUGAGGAUCACCCAUGUCAAGAGAGACAAGGAUAUCUGAAUUAAUUAAAUUAAGGAGAAGGUGUGAAAA [71%, Same state of confusion2, 1] | 253 nM | 201 nM
17 | AAGAAACAUGAGGAUCACCCAUGUGAUAAUAUGGGAGGAUAUACGAAGACGAAAGACGAAGUAGAAGGCCUAAGAA [Garnet 46] | 138 nM | 45.3 nM
18 | AAGAAAGAAACAUAGGAUAUCAAGGAUAUAACAUGAGGAUCACCCAUGUAAAUACGAAAGUAUAAUGAGAAGGAUGGAUGAUCUUC [Meechl MS2 SS2] | 44.9 nM | 28.9 nM
19 | AAGAAUUAAACGCAGGAUAUGUACCCACGUACAUGAGGAUCACCCAUGUGCCUAUAAGGGUCGAGGCAGAAGGGCGAUAUAGAAA [Reteriusge] | 81.2 nM | 15.8 nM
20 | AAGAGAAGAACUGAGGAUAUCAGGGAUGGUACAUGAGGAUCACCCAUGUUGGCAAGCGAAGAAACUGAGAAGGCAGAGAAGAAGAA [JR_SameState2_Sub6] | 34.3 nM | 29.4 nM
21 | AAGAGACAUGAGGAUCACCCAUGUAGGAUUAUGGGAGGAUAUACAAAGACGAGAGUCAGAGUAGAAGGCCUAGGAU [salish99-ss1-130(!)] | 59.9 nM | 21.5 nM
22 | AAGAUACAUGAGGAUCACCCAUGUCGAGAGAGACGAGGAUAUCUGAAUCGAUUAGAUUACGGAGAAGGCGUGAAAA [LROPPY Same State 1 - v07_deltaG=1.9] | 34.3 nM | 19.4 nM

Row | Sequence | apparent KD of MS2 coat protein (MS2 coat protein [1]) | apparent KD of MS2 coat protein (MS2 coat protein [2])
23 | AAGAUACAUGAGGAUCACCCAUGUUUUGGUGGGUCAGGAUAUAAAAAGAAUGAGAGAAAGUUAGAAGGGACAAAGA [JR_SS001_Sub005] | 309 nM | 201 nM
24 | AAGCAACAUGAGGAUCACCCAUGUAGCAGGGUCAGAGGAUAUUUGAUCUUGGCAAGGGUUAAAGAAGGUUGAUAAA [Rianqu] | 140 nM | 264 nM
25 | AAGUCACAUGAGGAUCACCCAUGUCGUAAACGAUGAGGAUAUAGGAACGAAAGAAAAAAACUAGAAGGUAUAACAA [SameState1-03] | 26.7 nM | 28.8 nM
26 | AAUAAACAUGAGGAUCACCCAUGUAAAUGGGCGAUAGGAUAUGCGAAAAUAAAGAAAGAAGCAGAAGGAUCGAAGA [Ex5 sub 3] | 51.9 nM | 224 nM
27 | AAUAAACAUGAGGAUCACCCAUGUAAAUGGGUACAAGGAUAUGCGAAAAGAAACAAAGAAGCAGAAGGUGUAAAGA [Ex5 sub 2] | 432 nM | 347 nM
28 | AAUAAACAUGAGGAUCACCCAUGUAGAAACAUGGGAGGAUAUACAAAGACGAAAGUCAAAGUAGAAGGCCUAAAAA [Mat - Same State 1 - Mod - D168] | 329 nM | 150 nM
29 | AAUAAACAUGAGGAUCACCCAUGUAGAAACAUGGGAGGAUAUACAAAGACGAAAGUCAAAGUAGAAGGCCUAAUAA [Mat - Same State 1 - Mod - D167] | 42.4 nM | 92.7 nM
30 | AAUAAACAUGAGGAUCACCCAUGUAGAAAUAUGGGAGGAUAUACAAAGACGAAAGUCAAAGUAGAAGGCCUAAUAU [Mat - Same State 1 - Mod - D154] | 64.7 nM | 23.2 nM
31 | AAUAAUUAUAUCGAGGAUAUCGGUAAUAAGACAUGAGGAUCACCCAUGUAAUAAGGUUAAAUAAACGAGAAGGCGAAGGGUGAAA [JR_SS002_Sub006] | 49.2 nM | 80.9 nM
32 | AAUACACAUGAGGAUCACCCAUGUAGAAAGAAGGCAGGAUAUCAGAUCCACAUGUGAUAAUGAGAAGGGCCAAUAU [SS 1 Tesla 10] | 171 nM | 21.9 nM
33 | AAUAUAUUAAGUGAGGAUAUCAAAGAAAAAACAUGAGGAUCACCCAUGUGGGAAACCUGGUCGGGUGAGAAGGCACUUAAUAUAU [Samwise Clockwise 28 - Jieux - Same State 2] | 314 nM | 31.3 nM
34 | AAUAUAUUAAGUGAGGAUAUCGAGGAAAAAACAUGAGGAUCACCCAUGUGGGAAACAUGGUAGGGUGAGAAGGCACUUAAUAUAU [Samwise Clockwise 24 - Jieux - Same State 2] | 572 nM | 132 nM
35 | AAUAUAUUAUCUGAGGAUAUCAUAGGAAAAACAUGAGGAUCACCCAUGUGGGAAACCUGGUCGGGUGAGAAGGUGGAUAAUAUAU [Samwise Clockwise 33 - Jieux - Same State 2] | 341 nM | 58.7 nM
36 | AAUAUAUUAUUUAAGGAUAUCAUAGGAAACACAUGAGGAUCACCCAUGUGGGAAACUUGGUCGGGUGAGAAGGUGGAUAAUAUAU [Samwise Clockwise 36 - Jieux - Same State 2] | 24.6 nM | 17.4 nM
37 | AAUCCAAAUAGUUAGGAUAUGGGAAUAAAAACAUGAGGAUCACCCAUGUAAUUGAAACAAGUUAACCAGAAGGGACAGGGUGAAA [JR_SS002_Sub210] | 16.6 nM | 67.5 nM
38 | ACAAACAAAAAAGAGGAUAUCCAAAACAAAACAUGAGGAUCACCCAUGUAAAAGAAAAGAAAAUGGGAGAAGGCUUACAACAAAC [SS2 M 22] | 28.2 nM | 19.4 nM
39 | ACAAAUAAAAGAGAGGAUAUCCAAAAGAAAACAUGAGGAUCACCCAUGUGAAAGAAAAUAAAAUGGGAGAAGGCUCAGAAUAAUA [Topaz 30] | 83.2 nM | 16.4 nM
40 | ACAAGACAUGAGGAUCACCCAUGUAAAGAAAACGCAGGAUAUGCAAAAAAAUUCAUGGGUGCAGAAGGGCGAAAAA [Default title] | 34.2 nM | 153 nM
41 | ACGAGGAAGAGAGAGGAUAUCCAAAGGAAAACAUGAGGAUCACCCAUGUAAAAGGUAGGAAAUUGGGAGAAGGCUCAAGAGAGAG [salish99-ss2-069] | 34.6 nM | 32.4 nM
42 | ACUACACAUGAGGAUCACCCAUGUCAGGCCGGACUAGGAUAUUAUAAACCAGAGUAAAAAUAAGAAGGAGUAGGAA [JR_SS001_Sub310] | 61.3 nM | 39.2 nM
43 | ACUUCACAUGAGGAUCACCCAUGUCAGGCCGGACUAGGAUAUUAUCAAGCAGCGUAACCAUAAGAAGGAGUAGGAA [JR_SS001_Sub313] | 82.5 nM | 57.7 nM
